From US20100158922A1

Target: recombinant human IFNγ (human) (UniProt P01579)
Test: cell-based or functional assay

Chain of recombinant human IFNγ (human) (P01579 24-166 limits assumed): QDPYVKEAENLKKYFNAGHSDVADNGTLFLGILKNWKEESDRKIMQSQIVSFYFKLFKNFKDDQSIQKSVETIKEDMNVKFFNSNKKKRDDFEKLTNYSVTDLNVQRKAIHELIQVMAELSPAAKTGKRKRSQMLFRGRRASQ

**Q.** With “R&D Systems mouse anti-human IFNγ antibody MAB285” as the substance, how does the MHC II Inhibition Cell-Based Assay IC50 read?
**A.** 0.4 nM
